The results in this text go back to US20230414709A1 (TRUSTEES OF COLUMBIA UNIVERSITY IN THE CITY OF NEW YORK, published 2023).

The target of data set [1] is T1, mouse megalin (mouse, UniProt A2ARV4 26-4660). The data set is described as follows: cell-based or functional assay.
Data set [2] deals with the molecule itself. The experiment in a line: Western blot of purified NGAL and of NGAL recovered from mouse urine, homodimer band against monomer band. The protocol:
FIGS. 22A-22B. FIG. 22A. Left: Western blot of different species of NGAL. Wild type NGAL forms protein dimers (46-50 KDa) from monomers (at 23-25 KDa). Similarly the Mutant1 (K3 NGAL) forms dimers from monomers. However, Mutant2 (K3Cys) only forms monomers. Right. NGAL proteins (Wt, Mut1 and Mut2) were injected into mice, and the NGAL proteins in the urine (uWt=urinary wild-type protein; uMut1=urinary Mut1 K3 and uMut2=urinary Mut2 K3Cys) were collected at two different time points, and analyzed by Western Blot. For each protein (uWt, uMut1 and uMut2), the 1st lane on the Western blot represents proteins that were collected in the urine 20 min. after the injection and the 2nd lane on the Western blot represents proteins that were collected from the mouse at 180 min. after the injection. Very low levels of uWt appear in urine, whereas higher levels of both uMut1 and uMut2 appear in urine. uMut1 forms both monomers and dimers, whereas uMut2 only forms monomers. FIG. 22B. Mice were injected with NGAL proteins (Wt, Mut1 and Mut2) that were labeled with the dye Alexa Fluor™ 568 (Molecular Probes-Invitrogen), which covalently attaches to the proteins. […]

Data set [3] has as its target T1, mouse megalin. The experiment in a line: cell-based or functional assay. This is another data set of the same source.

Residue numbers refer to the chain shown, from its start.

T1 sequence (A2ARV4 26-4660 limits assumed): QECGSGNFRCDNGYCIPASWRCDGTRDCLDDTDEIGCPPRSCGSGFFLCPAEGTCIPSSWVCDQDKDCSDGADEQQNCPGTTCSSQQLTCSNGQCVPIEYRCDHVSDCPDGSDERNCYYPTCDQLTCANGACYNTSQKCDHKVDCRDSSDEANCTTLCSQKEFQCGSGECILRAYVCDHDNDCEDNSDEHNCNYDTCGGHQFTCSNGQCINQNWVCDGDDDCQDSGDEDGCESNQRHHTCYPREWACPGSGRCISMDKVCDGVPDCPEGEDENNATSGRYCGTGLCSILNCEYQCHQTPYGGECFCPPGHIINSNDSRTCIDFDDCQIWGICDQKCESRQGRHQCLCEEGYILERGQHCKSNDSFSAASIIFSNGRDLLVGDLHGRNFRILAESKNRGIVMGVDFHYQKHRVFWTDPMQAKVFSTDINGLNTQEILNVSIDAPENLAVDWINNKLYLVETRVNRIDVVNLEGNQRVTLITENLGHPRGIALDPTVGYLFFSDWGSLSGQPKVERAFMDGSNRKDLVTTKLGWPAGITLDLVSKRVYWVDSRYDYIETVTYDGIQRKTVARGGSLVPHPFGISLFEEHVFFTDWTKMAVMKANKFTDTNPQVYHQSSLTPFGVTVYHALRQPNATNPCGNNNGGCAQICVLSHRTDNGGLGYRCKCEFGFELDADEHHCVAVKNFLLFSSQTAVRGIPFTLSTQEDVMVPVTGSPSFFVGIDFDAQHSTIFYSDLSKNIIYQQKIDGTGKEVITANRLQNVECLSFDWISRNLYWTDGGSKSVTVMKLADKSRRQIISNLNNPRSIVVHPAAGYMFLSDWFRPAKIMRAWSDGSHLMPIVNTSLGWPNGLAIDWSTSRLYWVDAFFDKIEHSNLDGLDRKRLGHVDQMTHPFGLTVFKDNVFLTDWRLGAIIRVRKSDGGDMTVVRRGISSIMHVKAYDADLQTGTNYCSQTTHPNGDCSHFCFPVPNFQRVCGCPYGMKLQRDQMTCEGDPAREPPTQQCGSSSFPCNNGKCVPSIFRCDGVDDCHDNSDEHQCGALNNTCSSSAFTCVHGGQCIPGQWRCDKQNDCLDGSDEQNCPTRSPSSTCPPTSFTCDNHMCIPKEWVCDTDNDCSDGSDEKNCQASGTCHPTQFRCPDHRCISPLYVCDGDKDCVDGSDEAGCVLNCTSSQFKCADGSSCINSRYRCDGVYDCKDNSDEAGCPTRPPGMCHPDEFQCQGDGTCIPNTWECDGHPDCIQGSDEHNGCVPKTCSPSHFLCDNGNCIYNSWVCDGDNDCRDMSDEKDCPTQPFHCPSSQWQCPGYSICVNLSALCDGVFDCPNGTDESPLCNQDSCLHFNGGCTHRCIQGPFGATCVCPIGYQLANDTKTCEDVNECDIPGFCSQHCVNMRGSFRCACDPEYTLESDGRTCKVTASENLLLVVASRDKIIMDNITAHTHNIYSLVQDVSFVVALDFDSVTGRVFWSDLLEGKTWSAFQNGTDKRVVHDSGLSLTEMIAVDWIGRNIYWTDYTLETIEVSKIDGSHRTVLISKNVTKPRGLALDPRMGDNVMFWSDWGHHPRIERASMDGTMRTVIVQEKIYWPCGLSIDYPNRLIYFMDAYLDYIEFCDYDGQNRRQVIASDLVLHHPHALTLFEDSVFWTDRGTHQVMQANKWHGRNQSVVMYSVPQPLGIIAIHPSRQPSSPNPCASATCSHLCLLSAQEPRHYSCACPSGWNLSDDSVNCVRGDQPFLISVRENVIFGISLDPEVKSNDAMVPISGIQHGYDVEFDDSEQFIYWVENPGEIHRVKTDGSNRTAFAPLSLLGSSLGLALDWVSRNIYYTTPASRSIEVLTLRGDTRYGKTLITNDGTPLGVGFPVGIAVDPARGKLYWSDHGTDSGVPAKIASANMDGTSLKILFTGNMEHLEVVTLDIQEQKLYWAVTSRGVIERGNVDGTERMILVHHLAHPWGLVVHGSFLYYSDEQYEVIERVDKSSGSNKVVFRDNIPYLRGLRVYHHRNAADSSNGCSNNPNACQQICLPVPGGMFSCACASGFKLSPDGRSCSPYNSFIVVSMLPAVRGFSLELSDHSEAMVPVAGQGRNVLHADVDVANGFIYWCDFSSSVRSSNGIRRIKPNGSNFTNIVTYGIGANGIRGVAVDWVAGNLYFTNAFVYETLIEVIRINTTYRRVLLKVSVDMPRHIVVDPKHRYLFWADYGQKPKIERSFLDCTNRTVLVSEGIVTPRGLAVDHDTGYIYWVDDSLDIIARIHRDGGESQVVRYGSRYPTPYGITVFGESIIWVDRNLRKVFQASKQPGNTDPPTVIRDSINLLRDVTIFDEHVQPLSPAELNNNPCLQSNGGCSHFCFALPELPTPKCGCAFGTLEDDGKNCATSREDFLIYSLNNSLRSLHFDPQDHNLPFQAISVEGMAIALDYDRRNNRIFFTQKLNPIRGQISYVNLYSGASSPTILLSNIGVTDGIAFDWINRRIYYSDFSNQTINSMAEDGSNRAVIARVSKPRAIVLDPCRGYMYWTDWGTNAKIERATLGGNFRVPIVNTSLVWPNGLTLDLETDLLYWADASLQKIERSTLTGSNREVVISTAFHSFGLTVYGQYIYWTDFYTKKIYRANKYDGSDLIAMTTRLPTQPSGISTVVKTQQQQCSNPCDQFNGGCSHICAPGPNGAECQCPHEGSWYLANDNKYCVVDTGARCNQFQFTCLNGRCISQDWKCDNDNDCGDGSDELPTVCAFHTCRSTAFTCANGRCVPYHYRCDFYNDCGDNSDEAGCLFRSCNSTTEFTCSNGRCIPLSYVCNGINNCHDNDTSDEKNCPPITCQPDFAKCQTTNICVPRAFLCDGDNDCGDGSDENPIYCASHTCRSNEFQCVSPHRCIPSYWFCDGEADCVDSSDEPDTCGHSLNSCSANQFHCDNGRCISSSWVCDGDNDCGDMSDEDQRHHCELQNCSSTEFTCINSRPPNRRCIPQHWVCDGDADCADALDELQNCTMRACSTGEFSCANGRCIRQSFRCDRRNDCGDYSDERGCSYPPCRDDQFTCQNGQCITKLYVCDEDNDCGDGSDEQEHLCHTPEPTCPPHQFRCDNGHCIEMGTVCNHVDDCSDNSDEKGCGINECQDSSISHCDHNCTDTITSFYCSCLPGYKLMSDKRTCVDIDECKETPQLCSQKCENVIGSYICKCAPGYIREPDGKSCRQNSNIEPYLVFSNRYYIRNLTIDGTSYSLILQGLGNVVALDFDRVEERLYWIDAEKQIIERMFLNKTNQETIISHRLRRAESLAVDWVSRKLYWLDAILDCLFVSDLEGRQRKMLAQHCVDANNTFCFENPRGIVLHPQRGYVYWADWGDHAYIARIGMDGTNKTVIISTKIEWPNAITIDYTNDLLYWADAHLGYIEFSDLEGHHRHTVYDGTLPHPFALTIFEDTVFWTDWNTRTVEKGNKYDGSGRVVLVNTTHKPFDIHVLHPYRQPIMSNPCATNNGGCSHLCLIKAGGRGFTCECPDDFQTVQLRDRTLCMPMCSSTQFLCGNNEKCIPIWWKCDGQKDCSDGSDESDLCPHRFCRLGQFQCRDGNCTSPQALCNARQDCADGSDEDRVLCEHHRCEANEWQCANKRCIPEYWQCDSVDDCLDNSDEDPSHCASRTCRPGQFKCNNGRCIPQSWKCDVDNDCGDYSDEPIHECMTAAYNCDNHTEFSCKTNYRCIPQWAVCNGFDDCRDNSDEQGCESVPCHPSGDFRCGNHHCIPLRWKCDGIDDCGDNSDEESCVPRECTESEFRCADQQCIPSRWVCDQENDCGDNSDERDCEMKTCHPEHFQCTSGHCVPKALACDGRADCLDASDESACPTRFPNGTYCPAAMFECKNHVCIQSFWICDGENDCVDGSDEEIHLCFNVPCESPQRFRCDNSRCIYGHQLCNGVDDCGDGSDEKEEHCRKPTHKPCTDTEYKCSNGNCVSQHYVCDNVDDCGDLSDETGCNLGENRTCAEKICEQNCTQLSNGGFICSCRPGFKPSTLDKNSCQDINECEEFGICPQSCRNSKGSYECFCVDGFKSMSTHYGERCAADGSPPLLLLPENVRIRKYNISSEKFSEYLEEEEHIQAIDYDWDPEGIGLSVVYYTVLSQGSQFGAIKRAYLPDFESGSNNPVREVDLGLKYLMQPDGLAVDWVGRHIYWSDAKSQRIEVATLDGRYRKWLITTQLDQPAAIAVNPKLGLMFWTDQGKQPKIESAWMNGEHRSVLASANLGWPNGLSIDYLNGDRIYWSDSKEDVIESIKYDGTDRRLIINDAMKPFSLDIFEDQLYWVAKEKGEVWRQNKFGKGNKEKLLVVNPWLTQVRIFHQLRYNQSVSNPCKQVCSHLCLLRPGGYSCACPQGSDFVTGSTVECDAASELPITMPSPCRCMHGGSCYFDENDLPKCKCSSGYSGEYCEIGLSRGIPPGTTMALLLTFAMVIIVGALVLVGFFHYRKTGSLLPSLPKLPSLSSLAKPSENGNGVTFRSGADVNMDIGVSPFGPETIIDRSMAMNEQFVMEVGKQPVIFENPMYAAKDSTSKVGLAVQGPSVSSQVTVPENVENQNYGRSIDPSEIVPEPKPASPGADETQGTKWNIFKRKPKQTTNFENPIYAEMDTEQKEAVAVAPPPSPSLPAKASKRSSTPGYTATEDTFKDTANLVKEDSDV

B1: NGAL mutant A1 (ligand)
chain: QDSTSDLIPAPPLSSVPLQQNFQDNQFQGKWYVVGLAGNAILREDKDPQKMYATIYELKEDKSYNVTSVLFRKKKCDYWIRTFVPGCQPGEFTLGNIKSYPGLTSYLVRVVSTNYNQHAMVFFKKVSQNREYFKITLYGRTKELTSELKENFIRFSKSLGLPENHIVFPVPIDQCIDG
As for B1, the “Accumulation 3 hours after i.p. injection (%): Urine (Ngal-enterochelin-55Fe3+ complex, C57BL/6 mice)” value in data set [1] is 0.55%.

B2: NGAL mutant I5 (ligand)
chain: B1 chain with K62G, K73D, K74D, K75G, R130Q
On to B2, for which, in data set [1], the “Accumulation 3 hours after i.p. injection (%): Urine (Ngal-enterochelin-55Fe3+ complex, C57BL/6 mice)” value was 0.05%.

B3: NGAL mutant B4 (ligand)
chain: B1 chain with S15K, K46E, K98Q
Regarding B3, the “Accumulation 3 hours after i.p. injection (%): Urine (Ngal-enterochelin-55Fe3+ complex, C57BL/6 mice)” value in data set [1] was found to be 0.13%.

B4: NGAL mutant F4 (ligand)
chain: B1 chain with K46E, K149Q
On to B4, for which, in data set [1], the “Accumulation 3 hours after i.p. injection (%): Urine (Ngal-enterochelin-55Fe3+ complex, C57BL/6 mice)” value amounted to 1.65%.

B5: NGAL mutant B2 (ligand)
chain: B1 chain with K46E, H118F, H165N
As for B5, the “Accumulation 3 hours after i.p. injection (%): Urine (Ngal-enterochelin-55Fe3+ complex, C57BL/6 mice)” value in data set [1] is 1.22%.

B6: NGAL mutant I1 (ligand)
chain: B1 chain with K73D, K74D, K75G, R130Q
For the molecule B6, in data set [1], the “Accumulation 3 hours after i.p. injection (%): Urine (Ngal-enterochelin-55Fe3+ complex, C57BL/6 mice)” value amounted to 6%.

B7: NGAL mutant D2 (ligand)
chain: B1 chain with S15K, K62G
On to B7, for which the “Accumulation 3 hours after i.p. injection (%): Urine (Ngal-enterochelin-55Fe3+ complex, C57BL/6 mice)” value in data set [1] is 0.11%.

B8: NGAL mutant G1 (ligand)
chain: B1 chain with R43Q, K149Q
On to B8, for which the “Accumulation 3 hours after i.p. injection (%): Urine (Ngal-enterochelin-55Fe3+ complex, C57BL/6 mice)” value in data set [1] worked out at 0.28%.

B9: NGAL mutant H2 (ligand)
chain: B1 chain with K98Q, H118F, R130Q, K149Q, H165N
For the molecule B9, the “Accumulation 3 hours after i.p. injection (%): Urine (Ngal-enterochelin-55Fe3+ complex, C57BL/6 mice)” value in data set [1] was 0.27%.

B10: NGAL mutant C5 (ligand)
chain: B1 chain with S15K, R72Q, K157Q
For the molecule B10, in data set [1], the “Accumulation 3 hours after i.p. injection (%): Urine (Ngal-enterochelin-55Fe3+ complex, C57BL/6 mice)” value came to 0.26%.

B11: NGAL mutant A3 (ligand)
chain: B1 chain with S15K, R43Q
Regarding B11, in data set [1], the “Accumulation 3 hours after i.p. injection (%): Urine (Ngal-enterochelin-55Fe3+ complex, C57BL/6 mice)” value came to 0.23%.

B12: NGAL mutant D1 (ligand)
chain: B1 chain with S15K, K73D, K74D, K75G
As to B12, the “Accumulation 3 hours after i.p. injection (%): Urine (Ngal-enterochelin-55Fe3+ complex, C57BL/6 mice)” value in data set [1] worked out at 0.1%.

B13: NGAL mutant A2 (ligand)
chain: B1 chain with R140Q, K142Q
Turning to B13, in data set [1], the “Accumulation 3 hours after i.p. injection (%): Urine (Ngal-enterochelin-55Fe3+ complex, C57BL/6 mice)” value turned out to be 0.18%.

B14: NGAL mutant I3 (ligand)
chain: B1 chain with S15K, K62G, K73D, K74D, K75G, K98Q
Take B14: the “Accumulation 3 hours after i.p. injection (%): Urine (Ngal-enterochelin-55Fe3+ complex, C57BL/6 mice)” value in data set [1] was 6.9%.

B15: NGAL mutant K1 (ligand)
chain: B1 chain with K46E, K59Q, K98Q, H118F, R130Q, K149Q, H165N
In the case of B15, the “Accumulation 3 hours after i.p. injection (%): Urine (Ngal-enterochelin-55Fe3+ complex, C57BL/6 mice)” value in data set [1] stood at 1.9%.

B16: NGAL mutant K5 (ligand)
chain: B1 chain with K46E, K98Q, H118F, R130Q, K149Q, H165N
In the case of B16, the “Accumulation 3 hours after i.p. injection (%): Urine (Ngal-enterochelin-55Fe3+ complex, C57BL/6 mice)” value in data set [1] turned out to be 2.9%.

B17: NGAL mutant H3 (ligand)
chain: B1 chain with S15K, H118F, K149Q, H165N
Take B17: in data set [1], the “Accumulation 3 hours after i.p. injection (%): Urine (Ngal-enterochelin-55Fe3+ complex, C57BL/6 mice)” value was found to be 0.3%.

B18: K3 NGAL mutant protein (ligand)
chain: B1 chain with K46E, K73D, K74D, K75G, K98Q, H118F, R130Q, K149Q, H165N
notes: Mutant of human NGAL, made in E. coli as for the wild type (GST fusion vector); Runs as monomer and dimer on Western blot; also called K6 (i.e, K3); Mut1
Regarding B18, the “Accumulation 3 hours after i.p. injection (%): Urine (Ngal-enterochelin-55Fe3+ complex, C57BL/6 mice)” value in data set [1] was 19.6%. In addition, in data set [2], the binding result was “binds”. Also, in data set [3], the “percent of injected Ngal:Ent:59FeIII complex delivered to mouse urine in 3 hrs” value (“percent” below) was found to be 23%.

B19: wild-type human NGAL (Neutrophil Gelatinase-Associated Lipocalin) (ligand)
chain: B1 chain with S15K
With B19, the “percent” value in data set [3] was under 0.1%.

B20: K3Cys protein (ligand)
chain: B1 chain with K46E, K73D, K74D, K75G, C87S, K98Q, H118F, R130Q, K149Q, H165N
notes: only monomers seen; also called K3Cys NGAL; Mut2
B20: the binding result in data set [2] is “no binding”. Further, in data set [3], the “percent” value was about 100%.

B21: NGAL mutant K2 (ligand)
chain: B1 chain with K73D, K74D, K75G, K98Q, H118F, R130Q, K149Q, H165N
As to B21, in data set [1], the “Accumulation 3 hours after i.p. injection (%): Urine (Ngal-enterochelin-55Fe3+ complex, C57BL/6 mice)” value was 9.6%.

B22: NGAL mutant F5 (ligand)
chain: B1 chain with K46E, K149Q, H165N
B22: in data set [1], the “Accumulation 3 hours after i.p. injection (%): Urine (Ngal-enterochelin-55Fe3+ complex, C57BL/6 mice)” value was determined as 1.23%.

B23: NGAL mutant B1 (ligand)
chain: B1 chain with S15K, K98Q, H118F, H165N
For the molecule B23, the “Accumulation 3 hours after i.p. injection (%): Urine (Ngal-enterochelin-55Fe3+ complex, C57BL/6 mice)” value in data set [1] amounted to 0.22%.

B24: NGAL mutant F2 (ligand)
chain: B1 chain with S15K, K46E, K59Q
For B24, in data set [1], the “Accumulation 3 hours after i.p. injection (%): Urine (Ngal-enterochelin-55Fe3+ complex, C57BL/6 mice)” value amounted to 0.11%.

B25: NGAL mutant B3 (ligand)
chain: B1 chain with S15K, K46E, H165N
Take B25: the “Accumulation 3 hours after i.p. injection (%): Urine (Ngal-enterochelin-55Fe3+ complex, C57BL/6 mice)” value in data set [1] was 0.3%.

B26: NGAL mutant G3 (ligand)
chain: B1 chain with S15K, K157Q
B26: the “Accumulation 3 hours after i.p. injection (%): Urine (Ngal-enterochelin-55Fe3+ complex, C57BL/6 mice)” value in data set [1] stood at 0.17%.

B27: NGAL mutant H5 (ligand)
chain: B1 chain with K98Q, H165N
Regarding B27, the “Accumulation 3 hours after i.p. injection (%): Urine (Ngal-enterochelin-55Fe3+ complex, C57BL/6 mice)” value in data set [1] turned out to be 0.24%.

B28: NGAL mutant F1 (ligand)
chain: B1 chain with K46E, K59Q
For the molecule B28, the “Accumulation 3 hours after i.p. injection (%): Urine (Ngal-enterochelin-55Fe3+ complex, C57BL/6 mice)” value in data set [1] came out at 0.51%.

B29: NGAL mutant C1 (ligand)
chain: B1 chain with S15K, K50T, R72Q, R130Q, K149Q, K157Q
As for B29, the “Accumulation 3 hours after i.p. injection (%): Urine (Ngal-enterochelin-55Fe3+ complex, C57BL/6 mice)” value in data set [1] stood at 0.72%.

B30: NGAL mutant C3 (ligand)
chain: B1 chain with K50T, R72Q, K149Q, K157Q
On to B30, for which the “Accumulation 3 hours after i.p. injection (%): Urine (Ngal-enterochelin-55Fe3+ complex, C57BL/6 mice)” value in data set [1] stood at 0.44%.

B31: NGAL mutant H1 (ligand)
chain: B1 chain with S15K, H165N
With B31, the “Accumulation 3 hours after i.p. injection (%): Urine (Ngal-enterochelin-55Fe3+ complex, C57BL/6 mice)” value in data set [1] worked out at 0.37%.
